Reference: the supplement of paper PMC9170038

Test system: MS2 coat protein
Experiment: apparent KD of MS2 coat protein; designed switch direction (-1 OFF switch, 1 ON switch): -1; higher = weaker reporter binding
Procedure, shortened: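 Each step of the titration lasted 0.8–1.5 h at the lowest concentration and 10–20 min at the highest. The protein, SNAP-549-labelled MS2 coat protein, went from 0.7 or 1.5 nM doubling to 3 µM over RNA switches transcribed on Illumina chips by stalled E. coli RNA polymerase. Normalised cluster fluorescence was curve-fitted, and the per-design median over clusters is given as apparent KD.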

[1] = Eterna round: R95, input ligand: microRNA oligo, concentration not stated
[2] = input ligand: microRNA oligo, concentration not stated
[3] = Eterna round: R95, input ligand: FMN 200 uM
[4] = Eterna round: R95, input ligand: none

Sequence | apparent KD of MS2 coat protein [1] | apparent KD of MS2 coat protein (input ligand: FMN 200 uM) | apparent KD of MS2 coat protein (input ligand: none) | apparent KD of MS2 coat protein [2] | apparent KD of MS2 coat protein [3] | apparent KD of MS2 coat protein [4]
GCACGGUAAGUGAGGAUAUACCUCUGGAUACAGAGGUAGAAGGCACAUGAGGAUCACCCAUGUCCAAGCCGUGC [Fiskers BMX 4 - 84] (puzzle: Brourd's mod of Exclusion 4) | 22.8 nM |  |  |  |  | 
GCACUGCGAGGAUAUACAUGAGGAUCACCCAUGUGUCGGCAGCCAUGGUAGUACAAAUGUAGAAGGCGCGUAAA [EX3 #50] (Eterna round: R97, puzzle: Exclusion 3) |  | 85.6 nM | 587 nM |  |  | 
GCACUGGCAGGAUAUACAUGAGGAUCACCCAUGUGAUCCCUUAGGUACAAAAGUACAAGUAGAAGGGCCUGUGC [Omei Ex3 Model Bachelor's Dilema v44] (Eterna round: R97, puzzle: Exclusion 3) |  | 52.2 nM | 845 nM |  |  | 
GCAGACGUAGUGAGGAUAUGCUCUACCUCGGUAGAGCAGAAGGCACAUGAGGAUCACCCAUGUGACUCCUCAUC [Omei Ex4B B18] (Eterna round: R97, puzzle: Brourd's mod of Exclusion 4) |  | 49.2 nM | 20.1 nM |  |  | 
GCAGAUGAAGUGAGGAUAUGCUCUACCUCGGUAGAGCAGAAGGCACAUGAGGAUCACCCAUGUGAUUCAUCUGC [Omei Ex4B B6] (Eterna round: R97, puzzle: Brourd's mod of Exclusion 4) |  | 35.4 nM | 17 nM |  |  | 
GCAGCAAACCCAAUUAAAACCACAUGAGGAUCACCCAUGUCUCAGGAUAUGGUCUGGAUUACAGGCCAGAAGGGAGAAAGCUGC [Eli exng3 - 052] (Eterna round: R96, puzzle: Exclusion NG 3) |  | 16.2 nM | 17.7 nM | 10.7 nM |  | 
GCAGCAUAGUCGGAAACGACAGAACAUGAGGAUCACCCAUGUCAGGAUAUGGUCUGGAUUACAGGCCAGAAGGGACGAAGCUGC [Eli exng3 - 010] (Eterna round: R96, puzzle: Exclusion NG 3) |  | 13.5 nM | 16 nM | 11.4 nM |  | 
GCAGGCGACUAGGCUCGUCUUAUUUUGAGAAGAUUGAAAACAUGAGGAUCACCCAUGUUUGUGGGAGAGUUGGAGUG [JR_SV3TOV2_Sub013] (puzzle: Sensor v3, turn-off variant 2) | 73 nM |  |  |  | 59.4 nM | 65.3 nM
GCAGUAUGAGUUAGGAUAUGAUGAUUUUUAUUAAAUCAGAAGGAACUUGAGGAUCACCCAAGUAAAGAAUUGGU [JR_BMEx4_Sub069] (Eterna round: R97, puzzle: Brourd's mod of Exclusion 4) |  | 23.3 nM | 20.4 nM |  |  | 
GCAGUCAAAGUGAGGAUAUCUAGAGCGAUAGCUCUAGAGAAGGCACAUGAGGAUCACCCAUGUGAUCAGACUGC [BmEx4/7-A4'1] (Eterna round: R97, puzzle: Brourd's mod of Exclusion 4) |  | 605 nM | 257 nM |  |  | 
GCAGUGUCAGGAUAUUCGAGUUCGAGUGAAAGCUUGAGCUUGAAGAAGGGACAUGAGGAUCACCCAUGUGCUGU [-28.7, -27.7 kcal, A 27%, 1bis-(ca)1bis] (Eterna round: R97, puzzle: Exclusion 4) |  | 117 nM | 42.1 nM |  |  | 
GCAGUGUGAGUUAGGAUAUGAUGAUUUUUUAUUGGUCAGAAGGAACUUGAGGAUCACCCAAGUUAGGAAUUGGU [JR_BMEx4_Sub075] (Eterna round: R97, puzzle: Brourd's mod of Exclusion 4) |  | 40.3 nM | 33.1 nM |  |  | 
GCAGUUCGAGUUAGGAUAUGAUGUUAAUUCGGAUAUCAGAAGGAACUUGAGGAUCACCCAAGUAUAGAUGUUGC [JR_BMEx4_Sub060] (Eterna round: R97, puzzle: Brourd's mod of Exclusion 4) |  | 29.6 nM | 18.6 nM |  |  | 
GCAUCCAAAGUGAGGAUAUACCUCUGGAUACAGAGGUAGAAGGCACAUGAGGAUCACCCAUGUUACUAGGAUGC [Fiskers BMX 4 - 35] (puzzle: Brourd's mod of Exclusion 4) | 13.2 nM |  |  |  |  | 
GCAUGCUCCGAGGAUAUCGAAGCUAAUUAUGCACGAGAAGGCGGAACAUGAGGAUCACCCAUGUGAUGCCAAUG [Qutequen] (Eterna round: R97, puzzle: Exclusion 6) |  | 51.9 nM | 21.6 nM |  |  | 
GCAUGUCUUAAGGAUAUGCUAAGGCGUGAGCCAGCAGAAGGUAAGACAUGAGGAUCACCCAUGUUUUCCUAAAA [jl-ex6-4.33 ViennaUCT mod] (Eterna round: R97, puzzle: Exclusion 6) |  | 68.5 nM | 18.9 nM |  |  | 
GCAUGUCUUAAGGAUAUGCUAAGGCGUGAGCCGGCAGAAGGUAAGACAUGAGGAUCACCCAUGUUUUCCUAAAA [jl-ex6-4.32 ViennaUCT mod] (Eterna round: R97, puzzle: Exclusion 6) |  | 91.3 nM | 20.7 nM |  |  | 

Sequence | apparent KD of MS2 coat protein [1] | apparent KD of MS2 coat protein (input ligand: FMN 200 uM) | apparent KD of MS2 coat protein (input ligand: none) | apparent KD of MS2 coat protein [2] | apparent KD of MS2 coat protein [3] | apparent KD of MS2 coat protein [4]
GCCGAGUGAGGAUAUACAUGAGGAUCACCCAUGUAAACACGAAAGCAAGUGUCCCUCAGUAGAAGGCGCCUGGA [Aerusesxe] (puzzle: Exclusion 3) | 14.8 nM |  |  |  |  | 
GCCGUAAAUGUGAGGAUAUACCUAUGGAAACAUAGGUAGAAGGCACAUGAGGAUCACCCAUGUUCUCAAUCGGC [Mat - Exclusion 4 - Eli Mod - D6] (Eterna round: R97, puzzle: Brourd's mod of Exclusion 4) |  | 775 nM | 195 nM |  |  | 
GCCUCACAUGAGGAUCACCCAUGUCAGGAUAUCUAACGCGAGGUGCAGGCACUUCGUGAGAGAAGGGACGUCAA [Iszabius] (puzzle: Exclusion 1) | 19.4 nM |  |  |  |  | 
GCCUCACUUGAGGAUCACCCAAGUCAGGAUAUUCACGGAACUACGUAGUAGUUCGGCCGGAGAAGGGAUUCGGG [Qubexe] (Eterna round: R97, puzzle: Exclusion 1) |  | 64.8 nM | 41.8 nM |  |  | 
GCCUCACUUGAGGAUCACCCAAGUCAGGAUAUUCACGGAACUAUGUAGCAGUUCGGCCGGAGAAGGGAUUCGGG [Areses] (Eterna round: R97, puzzle: Exclusion 1) |  | 88.4 nM | 35 nM |  |  | 
GCCUCGUCAGGAUAUCUCCACGUGAGCAAGGCUCACGGGCCAGAGAAGGGACUUGAGGAUCACCCAAGUAAAAC [Ritiatso] (Eterna round: R97, puzzle: Exclusion 4) |  | 428 nM | 138 nM |  |  | 
GCGAAAGCAAGCAAGUGAAACAUGAGGAUCACCCAUGUACUCAUUUGCUCGUCUUGUAAGCUAUGCGAAAGCAUAGC [Mat - Sensor v3 - turn-off var 1 - Eli Mod - D51] (puzzle: Sensor v3, turn-off variant 1) | 9.67 nM |  |  |  | 10.7 nM | 9.72 nM
GCGACGCUACAUGAGGAUCACCCAUGUCCUCACAUGAGAUGGUAGGAUAUUAUAUAUACAUUGUGUGAGAAGGAUCAUCGCCCA [Eternabot solution 2] (Eterna round: R96, puzzle: Exclusion NG 3) |  | 351 nM | 121 nM | 74.8 nM |  | 
GCGAGCUGAGGAUAUACAUGAGGAUCACCCAUGUAUUUUGGAAGACUGCCUCCUGCACGUAGAAGGCGGCUCUU [Eternabot (L2) Solution 35] (Eterna round: R97, puzzle: Exclusion 3) |  | 24.4 nM | 24.7 nM |  |  | 
GCGCACCUACCAAAAGGUAGGCCAACAUGAGGAUCACCCAUGUAGGAUAUCGAUUGCUUUGCAGUCGAGAAGGGCAUGAUGCGC [JL ENG3 3.80 Mod 20] (Eterna round: R96, puzzle: Exclusion NG 3) |  | 17.2 nM | 19.9 nM | 14.4 nM |  | 
GCGCACCUACCAAAAGGUAGGUCCACAUGAGGAUCACCCAUGUAGGAUAUCGAUUGCUUUGCAGUCGAGAAGGACAUGAUGCGC [JL ENG3 3.80 Mod 10] (Eterna round: R96, puzzle: Exclusion NG 3) |  | 52.3 nM | 21.3 nM | 18.1 nM |  | 
GCGCACUAAGUGAGGAUAUCGUUUAUUUUUAGGAUCGAGAAGGCACAUGAGGAUCACCCAUGUUUGACGUGCGC [JR_BMOE4_Sub099] (puzzle: Brourd's mod of Exclusion 4) | 17.9 nM |  |  |  |  | 
GCGCAGUCAGGAUAUGCCGCUUGCGAUCACCGUUGGCAAAGGCAGAAGGGACAUGAGGAUCACCCAUGUGGCGC [e4e Mirror Pins #3] (puzzle: Exclusion 4) | 18.1 nM |  |  |  |  | 
GCGCCAUCGUGAGAUGGCGUAAAUACAUGAGGAUCACCCAUGUAGGAUAUCGAUUGCUUUGCAGUCGAGAAGGGCAAGGUAUUU [JL ENG3 3.90] (Eterna round: R96, puzzle: Exclusion NG 3) |  | 28.4 nM | 24.9 nM | 18.1 nM |  | 
GCGCCAUCGUGAGAUGGCGUAACUACAUGAGGAUCACCCAUGUAGGAUAUCGAUUGCUUUGCAGUCGAGAAGGGCAUGGUUUGU [JL ENG3 3.86] (Eterna round: R96, puzzle: Exclusion NG 3) |  | 56.1 nM | 22.8 nM | 20.2 nM |  | 
GCGCGAAGGUAGGAUAUCCGGGCAUCUUGCCGCGGAGAAGGACCCACAUGAGGAUCACCCAUGUGGUGAUCCUG [eternacac ex6r4 sub12] (Eterna round: R97, puzzle: Exclusion 6) |  | 40.8 nM | 19.4 nM |  |  | 
GCGGACUAGUUCGUGAGAACUGAGACAUGAGGAUCACCCAUGUAGGAUAUCGAUUCGAAACGAAUCGAGAAGGGCAUAGUCCGC [JL denovo 9] (Eterna round: R96, puzzle: Exclusion NG 3) |  | 25.1 nM | 26.8 nM | 17.7 nM |  | 
